Experimental data published in patent US20230201319.

Target: von Willebrand factor (VWF) in plasma of patients with severe COVID-19, P04275

B1: Purified recombinant human ADAMTS13 (rADAMTS13, Takeda, Vienna, Austria) from a Chinese hamster ovary cell line (protein)
chain: AAGGILHLELLVAVGPDVFQAHREDTERYVLTNLNIGAELLRDPSLGAQFRVHLVKMVILTEPEGAPNITANLTSSLLSVCGWSQTINPEDDTDPGHADLVLYITRFDLELPDGNRQVRGVTQLGGACSPTWSCLITEDTGFDLGVTIAHEIGHSFGLEHDGAPGSGCGPSGHVMASDGAAPRAGLAWSPCSRRQLLSLLSAGRARCVWDPPRPQPGSAGHPPDAQPGLYYSANEQCRVAFGPKAVACTFAREHLDMCQALSCHTDPLDQSSCSRLLVPLLDGTECGVEKWCSKGRCRSLVELTPIAAVHGRWSSWGPRSPCSRSCGGGVVTRRRQCNNPRPAFGGRACVGADLQAEMCNTQACEKTQLEFMSQQCARTDGQPLRSSPGGASFYHWGAAVPHSQGDALCRHMCRAIGESFIMKRGDSFLDGTRCMPSGPREDGTLSLCVSGSCRTFGCDGRMDSQQVWDRCQVCGGDNSTCSPRKGSFTAGRAREYVTFLTVTPNLTSVYIANHRPLFTHLAVRIGGRYVVAGKMSISPNTTYPSLLEDGRVEYRVALTEDRLPRLEEIRIWGPLQEDADIQVYRRYGEEYGNLTRPDITFTYFQPKPRQAWVWAAVRGPCSVSCGAGLRWVNYSCLDQARKELVETVQCQGSQQPPAWPEACVLEPCPPYWAVGDFGPCSASCGGGLRERPVRCVEAQGSLLKTLPPARCRAGAQQPAVALETCNPQPCPARWEVSEPSSCTSAGGAGLALENETCVPGADGLEAPVTEGPGSVDEKLPAPEPCVGMSCPPGWGHLDATSAGEKAPSPWGSIRTGAQAAHVWTPAAGSCSVSCGRGLMELRFLCMDSALRVPVQEELCGLASKPGSRREVCQAVPCPARWQYKLAACSVSCGRGVVRRILYCARAHGEDDGEEILLDTQCQGLPRPEPQEACSLEPCPPRWKVMSLGPCSASCGLGTARRSVACVQLDQGQDVEVDEAACAALVRPEASVPCLIADCTYRWHVGTWMECSVSCGDGIQRRRDTCLGPQAQAPVPADFCQHLPKPVTVRGCWAGPCVGQGTPSLVPHEEAAAPGRTTATPAGASLEWSQARGLLFSPAPQPRRLLPGPQENSVQSSACGRQHLEPTGTIDMRGPGQADCAVAIGRPLGEVVTLRVLESSLNCSAGDMLLLWGRLTWRKMCRKLLDMTFSSKTNTLVVRQRCGRPGGGVLLRYGSQLAPETFYRECDMQLFGPWGEIVSPSLSPATSNAGGCRLFINVAPHARIAIHALATNMGAGTEGANASYILIRDTHSLRTTAFHGQQVLYWESESSQAEMEFSEGFLKAQASLRGQYWTLQSWVPEMQDPQSWKGKEGT
Question: How did the Decrease (%) of VWF:CB 0 vs. 5 hrs, plasma B1 turn out when B1 was run?
Answer: 65%

Question: And the Decrease (%) of VWF:CB 0 vs. 5 hrs, plasma B2?
Answer: 60%

Question: And the Decrease (%) of VWF:CB 0 vs. 5 hrs, plasma B5?
Answer: 65%

Question: What about the Decrease (%) of VWF:CB 0 vs. 5 hrs, plasma B7 of the same protein?
Answer: 52%

Question: What about the Decrease (%) of VWF:CB 0 vs. 5 hrs, plasma B15 of the same protein?
Answer: 44%

Question: What about the Decrease (%) of VWF:CB 0 vs. 5 hrs, plasma B18 of the same protein?
Answer: 63%

Question: What about the Decrease (%) of VWF:CB 0 vs. 5 hrs, plasma S6 of the same protein?
Answer: 33%

Question: And the Decrease (%) of VWF:CB 0 vs. 5 hrs, plasma S10?
Answer: 60%

Question: And the Decrease (%) of VWF:CB 0 vs. 5 hrs, plasma S12?
Answer: 53%

Question: What about the Decrease (%) of VWF:CB 0 vs. 5 hrs, plasma S21 of the same protein?
Answer: 44%

Question: What about the Dimer relative to total multimer content (AUC %) at 0 hrs, plasma B1 of the same protein?
Answer: 3.6 AUC %

Question: And the Dimer relative to total multimer content (AUC %) at 0 hrs, plasma B2?
Answer: 5.4 AUC %

Question: What about the Dimer relative to total multimer content (AUC %) at 0 hrs, plasma B5 of the same protein?
Answer: 3.7 AUC %

Question: And the Dimer relative to total multimer content (AUC %) at 0 hrs, plasma B7?
Answer: 5.3 AUC %

Question: And the Dimer relative to total multimer content (AUC %) at 0 hrs, plasma B15?
Answer: 5.1 AUC %

Question: What about the Dimer relative to total multimer content (AUC %) at 0 hrs, plasma B18 of the same protein?
Answer: 3.6 AUC %

Question: What about the Dimer relative to total multimer content (AUC %) at 0 hrs, plasma S6 of the same protein?
Answer: 5.4 AUC %

Question: And the Dimer relative to total multimer content (AUC %) at 0 hrs, plasma S21?
Answer: 4.9 AUC %

Question: And the Dimer relative to total multimer content (AUC %) at 5 hrs, plasma B1?
Answer: 9.1 AUC %

Question: What about the Dimer relative to total multimer content (AUC %) at 5 hrs, plasma B2 of the same protein?
Answer: 11.3 AUC %

Question: What about the Dimer relative to total multimer content (AUC %) at 5 hrs, plasma B5 of the same protein?
Answer: 11 AUC %

Question: And the Dimer relative to total multimer content (AUC %) at 5 hrs, plasma B7?
Answer: 10.1 AUC %

Question: And the Dimer relative to total multimer content (AUC %) at 5 hrs, plasma B15?
Answer: 12.3 AUC %

Question: What about the Dimer relative to total multimer content (AUC %) at 5 hrs, plasma B18 of the same protein?
Answer: 7 AUC %

Question: And the Dimer relative to total multimer content (AUC %) at 5 hrs, plasma S6?
Answer: 7 AUC %

Question: And the Dimer relative to total multimer content (AUC %) at 5 hrs, plasma S21?
Answer: 8.5 AUC %

Question: And the Increase (%) of dimer 0 vs. 5 hrs, plasma B1?
Answer: 253%

Question: What about the Increase (%) of dimer 0 vs. 5 hrs, plasma B2 of the same protein?
Answer: 209%

Question: What about the Increase (%) of dimer 0 vs. 5 hrs, plasma B5 of the same protein?
Answer: 297%

Question: And the Increase (%) of dimer 0 vs. 5 hrs, plasma B7?
Answer: 191%

Question: What about the Increase (%) of dimer 0 vs. 5 hrs, plasma B15 of the same protein?
Answer: 241%

Question: What about the Increase (%) of dimer 0 vs. 5 hrs, plasma B18 of the same protein?
Answer: 194%

Question: And the Increase (%) of dimer 0 vs. 5 hrs, plasma S6?
Answer: 130%

Question: And the Increase (%) of dimer 0 vs. 5 hrs, plasma S21?
Answer: 173%

Question: What about the “UHMW VWF multimers by semi-automated electrophoresis, plasma B1, 10 IU/mL rADAMTS13” value of the same protein?
Answer: disappearance of all the abnormal UHMW VWF multimers

Question: And the “UHMW multimer quantitation parameter after 5 h with 10 IU/mL rADAMTS13, plasma B1” value?
Answer: to a level lower than that observed in control plasma (88%)

Question: And the “UHMW multimer quantitation parameter before incubation, plasma B1 (home cast gels)” value?
Answer: the elevated UHMW multimer quantitation parameter of 124%

Question: What about the VWF:CB (IU/mL) at 0 hrs, plasma B1, 1 IU/mL rADAMTS13 of the same protein?
Answer: 3.09 IU/mL

Question: And the VWF:CB (IU/mL) at 0 hrs, plasma B2, 1 IU/mL rADAMTS13?
Answer: 1.39 IU/mL

Question: What about the VWF:CB (IU/mL) at 0 hrs, plasma B5, 1 IU/mL rADAMTS13 of the same protein?
Answer: 2.46 IU/mL

Question: What about the VWF:CB (IU/mL) at 0 hrs, plasma B7, 1 IU/mL rADAMTS13 of the same protein?
Answer: 3.03 IU/mL

Question: And the VWF:CB (IU/mL) at 0 hrs, plasma B15, 1 IU/mL rADAMTS13?
Answer: 2.44 IU/mL

Question: What about the VWF:CB (IU/mL) at 0 hrs, plasma B18, 1 IU/mL rADAMTS13 of the same protein?
Answer: 2.25 IU/mL

Question: What about the VWF:CB (IU/mL) at 0 hrs, plasma S6, 1 IU/mL rADAMTS13 of the same protein?
Answer: 2.19 IU/mL

Question: And the VWF:CB (IU/mL) at 0 hrs, plasma S10, 1 IU/mL rADAMTS13?
Answer: 6.48 IU/mL

Question: And the VWF:CB (IU/mL) at 0 hrs, plasma S12, 1 IU/mL rADAMTS13?
Answer: 3.01 IU/mL

Question: And the VWF:CB (IU/mL) at 0 hrs, plasma S21, 1 IU/mL rADAMTS13?
Answer: 3.7 IU/mL

Question: What about the VWF:CB (IU/mL) at 5 hrs, plasma B1, 1 IU/mL rADAMTS13 of the same protein?
Answer: 2.02 IU/mL

Question: What about the VWF:CB (IU/mL) at 5 hrs, plasma B2, 1 IU/mL rADAMTS13 of the same protein?
Answer: 0.84 IU/mL

Question: And the VWF:CB (IU/mL) at 5 hrs, plasma B5, 1 IU/mL rADAMTS13?
Answer: 1.61 IU/mL

Question: And the VWF:CB (IU/mL) at 5 hrs, plasma B7, 1 IU/mL rADAMTS13?
Answer: 1.58 IU/mL

Question: What about the VWF:CB (IU/mL) at 5 hrs, plasma B15, 1 IU/mL rADAMTS13 of the same protein?
Answer: 1.08 IU/mL

Question: And the VWF:CB (IU/mL) at 5 hrs, plasma B18, 1 IU/mL rADAMTS13?
Answer: 1.42 IU/mL

Question: What about the VWF:CB (IU/mL) at 5 hrs, plasma S6, 1 IU/mL rADAMTS13 of the same protein?
Answer: 0.73 IU/mL

Question: What about the VWF:CB (IU/mL) at 5 hrs, plasma S10, 1 IU/mL rADAMTS13 of the same protein?
Answer: 3.91 IU/mL

Question: And the VWF:CB (IU/mL) at 5 hrs, plasma S12, 1 IU/mL rADAMTS13?
Answer: 1.6 IU/mL

Question: What about the VWF:CB (IU/mL) at 5 hrs, plasma S21, 1 IU/mL rADAMTS13 of the same protein?
Answer: 1.63 IU/mL

Question: And the “mean VWF:CB of ten patient samples after 5 h incubation with 1 IU/mL rADAMTS13” value?
Answer: decreased from 3.01 (SD: 1.37; SEM: 0.434) to 1.64 (SD: 0.89; SEM 0.28) IU/mL

Question: What about the “mean VWF:CB of ten patient samples before incubation with 1 IU/mL rADAMTS13” value of the same protein?
Answer: decreased from 3.01 (SD: 1.37; SEM: 0.434) to 1.64 (SD: 0.89; SEM 0.28) IU/mL

Question: What about the “reduction in VWF activity at 5 h, plasma B1, 10 IU/mL rADAMTS13” value of the same protein?
Answer: more than a 60% reduction at 5 h

Question: What about the “reduction in VWF activity within 5 h, plasma B1, 1 IU/mL rADAMTS13” value of the same protein?
Answer: within 5 h, VFW activity reduced by about 30%

Question: And the “reduction of the UHMW multimer quantitation parameter after 5 h with 1 IU/mL rADAMTS13, plasma B1” value?
Answer: reduced by 16% after 5 h of incubation with 1 IU/mL rADAMTS13

Question: And the “reduction of the UHMW multimer quantitation parameter after 5 h with 10 IU/mL rADAMTS13, plasma B1” value?
Answer: by 36% with 10 IU/mL rADAMTS13
